Results reported in patent US12692310B2, “ASIC1 channel antagonist antibody” (ShanghaiTech University, priority 2019, dated 2026).

Key:
hASIC1a Y360A = molecular target: T1, hASIC1a Y360A (Homo sapiens, UniProt P78348, Y360A); assay: FACS binding to alanine mutant hASIC1a-eYFP on CHO-K1 cells; type: cell-based; details: vs WT hASIC1a
T1 construct: expressed in transfected cells; host or cells: CHO-K1, transient
T1 sequence (P78348 1-528 Y360A): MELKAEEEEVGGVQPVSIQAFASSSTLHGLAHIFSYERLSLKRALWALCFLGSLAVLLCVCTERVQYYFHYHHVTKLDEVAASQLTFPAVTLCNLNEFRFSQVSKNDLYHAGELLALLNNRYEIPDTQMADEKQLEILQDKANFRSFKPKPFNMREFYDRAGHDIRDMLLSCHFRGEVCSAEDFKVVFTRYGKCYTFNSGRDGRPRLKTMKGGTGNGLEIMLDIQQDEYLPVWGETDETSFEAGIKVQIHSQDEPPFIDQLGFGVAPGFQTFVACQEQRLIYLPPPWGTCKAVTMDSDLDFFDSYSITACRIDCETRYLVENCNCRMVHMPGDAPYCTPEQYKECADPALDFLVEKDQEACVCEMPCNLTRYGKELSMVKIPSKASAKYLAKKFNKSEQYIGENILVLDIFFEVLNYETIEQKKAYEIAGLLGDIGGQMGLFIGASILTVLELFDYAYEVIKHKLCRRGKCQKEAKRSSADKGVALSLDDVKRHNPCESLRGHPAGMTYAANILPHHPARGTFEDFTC
Protocol: (§1) To confirm the role of these amino acids, alanine mutagenesis was performed and four amino acids are very important for antibody binding were identified. Plasmid encoding single amino acid mutation of hASIC1a-eYFP was constructed and transient transfected into CHO-K1 cells. FACS binding assay was then performed to test whether the ASC06-IgG1 still binds to cell surface expressing mutated hASIC1a.

hASIC1a Y318A = molecular target: T2, hASIC1a Y318A (Homo sapiens, UniProt P78348, Y318A); assay: as above; type: cell-based; details: vs WT hASIC1a
T2 construct: expressed in transfected cells; host or cells: CHO-K1, transient
T2 sequence (P78348 1-528 Y318A): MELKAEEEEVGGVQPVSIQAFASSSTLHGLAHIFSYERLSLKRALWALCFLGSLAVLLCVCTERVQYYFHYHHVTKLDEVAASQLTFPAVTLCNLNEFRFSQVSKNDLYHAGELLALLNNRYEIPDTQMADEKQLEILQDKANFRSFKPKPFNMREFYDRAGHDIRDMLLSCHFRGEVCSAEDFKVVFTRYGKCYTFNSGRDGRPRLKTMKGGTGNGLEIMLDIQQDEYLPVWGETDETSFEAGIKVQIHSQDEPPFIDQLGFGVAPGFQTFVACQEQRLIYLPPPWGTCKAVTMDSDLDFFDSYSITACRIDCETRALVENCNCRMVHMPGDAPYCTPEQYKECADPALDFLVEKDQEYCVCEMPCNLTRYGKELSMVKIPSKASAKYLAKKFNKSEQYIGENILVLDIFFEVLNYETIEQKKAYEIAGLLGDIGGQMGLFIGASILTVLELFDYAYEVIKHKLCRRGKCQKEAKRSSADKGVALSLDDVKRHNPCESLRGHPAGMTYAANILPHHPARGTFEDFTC
Protocol: as §1

hASIC1a-eYFP = molecular target: T3, hASIC1a-eYFP (Homo sapiens, UniProt P78348); assay: Species/subtype selectivity, FACS binding and ICC, transfected CHO-K1 cells; type: cell-based; set-up: overexpress the full-length hASIC1a (1-528 amino acids) protein fused with eYFP; expressed in transfected cells; host or cells: CHO-K1, transient
T3 sequence (P78348 1-528): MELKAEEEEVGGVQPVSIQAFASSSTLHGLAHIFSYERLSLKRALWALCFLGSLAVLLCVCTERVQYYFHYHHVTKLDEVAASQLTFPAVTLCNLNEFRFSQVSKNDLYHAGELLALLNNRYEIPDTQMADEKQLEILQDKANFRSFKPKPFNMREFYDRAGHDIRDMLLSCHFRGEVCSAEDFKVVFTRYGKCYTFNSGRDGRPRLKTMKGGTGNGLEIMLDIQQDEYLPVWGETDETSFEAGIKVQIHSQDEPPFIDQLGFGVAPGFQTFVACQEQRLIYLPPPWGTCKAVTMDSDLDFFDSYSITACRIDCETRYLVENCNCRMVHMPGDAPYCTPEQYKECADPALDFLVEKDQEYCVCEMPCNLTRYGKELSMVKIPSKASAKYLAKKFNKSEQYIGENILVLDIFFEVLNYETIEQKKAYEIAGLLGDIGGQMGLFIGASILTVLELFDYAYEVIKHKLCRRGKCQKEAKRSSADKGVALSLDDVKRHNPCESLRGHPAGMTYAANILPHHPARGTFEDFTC
Protocol: Cell Membrane Colocalization Studies Using Immunocytochemistry (ICC). Cells (CHO-K1) were seeded onto the poly-D-lysine-coated glass bottom 24-well plates at a concentration of 2×10^5 cells per mL. After 12 h of cultivation, the CHO-K1 cells were transfected with ASIC plasmids by Lipofectin 3000 reagent. Twenty-four hours after transfection, the cells were fixed in 4% paraformaldehyde and incubated for 30 min in a blocking solution (5% goat serum in PBS). The resulting cells were incubated with […] ASC06-IgG1 at 4° C. overnight followed by three PBS washes for 5 min each and incubation with the Alexa555-conjugated goat anti-human secondary antibody (Life Technology). After three additional PBS washes for 5 min each, the nuclei of the cells were stained with DAPI (#10236276001; Roche). The ICC analysis was performed on a laser scanning confocal microscopy (ZEISS LSM710) with a 63×N.A. 1.4 objective at 25° C. Images were collected on a 1,024×1,024-pixel EM-CCD camera. […]
To test the species and subtype selectivity of ASC06-IgG1, vectors encoding human ASIC1b-eYFP fusion, rat ASIC1a-eYFP fusion, mouse ASIC1a-eYFP fusion, hASIC2a-eYFP fusion, hASIC2b-eYFP fusion, and hASIC3a-eYFP fusion were constructed. […] FACS binding assay and immunocytochemistry (ICC) were carried out to determine if ASC06-IgG1 is able to bind to the cell surface-expressed ASIC homologs and isotypes.

hASIC1a F252A = assay: FACS binding to alanine mutant hASIC1a-eYFP on CHO-K1 cells; type: cell-based, human; details: vs WT hASIC1a
Protocol: as §1

B1: ASC06-IgG1: ASC06 antibody converted into a full length IgG1 form (antibody, V domains shown)
VH: QVQLQQSGGGLVQPGGSLRLSCAASGFTFSSYAMSWVRQAPGKGLEWVSAISGSGGSTYYADSVKGRFTISRDNSKNTLYLQMNSLRAEDTAVYYCAKDSFYGYSKGDWGQGTLVTVSS
VL: QSALTQPASVSGSPGQSITISCTGTSSDVGAYNYVSWYQQQPGKAPKLMIYGVSNRPSGVSNRFSGSKSGNAASLTISGLQAEDEADYYCSSYTSSSTYVFGTGTKLTVLG
hASIC1a Y360A
  binding to hASIC1a Y360A mutation: decrease
hASIC1a Y318A
  binding to hASIC1a Y318A mutation: abolished
hASIC1a-eYFP; FACS
  FACS recognition of human ASIC1a: recognized
hASIC1a-eYFP; ICC staining
  ICC membrane co-localization with hASIC1a-eYFP: membrane co-localization
hASIC1a F252A
  binding to hASIC1a F252A mutation: so does
